According to EP2767548A2:

Target: Human CD16 (biotinylated, Sino Biological Inc, cat#10389-H27H1-B) (human) (UniProt P08637)
Assay: ELISA, biotinylated CD16 captured on neutravidin, anti-human Fab-HRP detection

Chain of Human CD16 (biotinylated, Sino Biological Inc, cat#10389-H27H1-B) (human) (P08637 17-208): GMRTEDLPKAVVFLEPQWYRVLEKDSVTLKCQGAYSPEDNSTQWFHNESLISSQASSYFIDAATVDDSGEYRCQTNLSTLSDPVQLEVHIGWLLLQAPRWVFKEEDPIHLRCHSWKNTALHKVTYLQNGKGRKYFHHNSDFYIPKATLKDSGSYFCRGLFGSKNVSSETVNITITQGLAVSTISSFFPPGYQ

Work on Synagis (antibody) yielded an EC50 of 6.15 µg/mL.
